Positions count from the first letter of the chain named. Numbers in names are those of the source.
Experiments:
[1] = molecular target: Non-muscle actin (actin filaments) (UniProt P60709 1-375); assay: cell-based or functional assay
[2] = molecular target: the molecule itself; assay: cell-based or functional assay

B1: His-tagged rat dynamin 2-WT (enzyme, UniProt P39052 1-870, looked up)
chain: MGNRGMEELIPLVNKLQDAFSSIGQSCHLDLPQIAVVGGQSAGKSSVLENFVGRDFLPRGSGIVTRRPLILQLIFSKTEYAEFLHCKSKKFTDFDEVRQEIEAETDRVTGTNKGISPVPINLRVYSPHVLNLTLIDLPGITKVPVGDQPPDIEYQIKDMILQFISRESSLILAVTPANMDLANSDALKLAKEVDPQGLRTIGVITKLDLMDEGTDARDVLENKLLPLRRGYIGVVNRSQKDIEGRKDIRAALAAERKFFLSHPAYRHMADRMGTPHLQKTLNQQLTNHIRESLPTLRSKLQSQLLSLEKEVEEYKNFRPDDPTRKTKALLQMVQQFGVDFEKRIEGSGDQVDTLELSGGARINRIFHERFPFELVKMEFDEKDLRREISYAIKNIHGVRTGLFTPDLAFEAIVKKQVVKLKEPCLKCVDLVIQELISTVRQCTSKLSSYPRLREETERIVTTYIREREGRTKDQILLLIDIEQSYINTNHEDFIGFANAQQRSTQLNKKRAIPNQGEILVIRRGWLTINNISLMKGGSKEYWFVLTAESLSWYKDEEEKEKKYMLPLDNLKIRDVEKGFMSNKHVFAIFNTEQRNVYKDLRQIELACDSQEDVDSWKASFLRAGVYPEKDQAENEDGAQENTFSMDPQLERQVETIRNLVDSYVAIINKSIRDLMPKTIMHLMINNTKAFIHHELLAYLYSSADQSSLMEESAEQAQRRDDMLRMYHALKEALNIIGDISTSTVSTPVPPPVDDTWLQNTSSHSPTPQRRPVSSVHPPGRPPAVRGPTPGPPLIPMPVGATSSFSAPPIPSRPGPQNVFANNDPFSAPPQIPSRPARIPPGIPPGVPSRRAPAAPSRPTIIRPAEPSLLD
[1]
  release of free phosphate (GTPase activity) by dynamin 2 (1.5 uM) with actin filaments (1 uM), 100 mM KCl, relative to that without actin: 6 fold

B2: His-tagged rat dynamin 2-K562E (enzyme, UniProt P39052 1-870, looked up)
chain: B1 chain with K562E
[2]
  GTPase activity under low ionic strength buffer, relative to dynamin 2-WT: ~0.33 of dynamin 2-WT
[1]
  release of free phosphate (GTPase activity) by dynamin 2 (1.5 uM) with actin filaments (1 uM), 100 mM KCl, relative to that without actin: 4 fold

From article PMC9127447, “The Lipid-Binding Defective Dynamin 2 Mutant in Charcot-Marie-Tooth Disease Impairs Proper Actin Bundling and Actin Organization in Glomerular Podocytes” (Frontiers in Cell and Developmental Biology, 2022)
